In assay [1] the target is T1, human (Homo sapiens) ROR2, full length, on cells (human, UniProt Q01974 34-943).
T1 construct: also called human ROR2; CHO-ROR2
Description: flow cytometry on ROR2-expressing tumor cell lines.

Assay [2] deals with T2, his-tagged ROR2 extracellular domain (ROR2-ECD, G&P Biosciences, cat. no. FCL0192) (human, UniProt Q01974 34-403).
T2 construct: Bought protein; also called human ROR2-ECD; recombinant human ROR2-ECD; not shown: his tag
Put plainly: BLI (Octet), antibody on anti-human IgG Fc sensor, ROR2-ECD 1.56-100 nM as analyte. In general terms: In BLI a coated tip is dipped into the sample, and binding shifts an interference pattern.

In assay [3] the target is T3, cynomolgus monkey (Macaca fascicularis) ROR2, full length, on CHO cells (cynomolgus monkey (Macaca fascicularis), UniProt Q01974 34-943 (human entry)).
T3 construct: also called ROR2mf; CHO-mfROR2
T3 chain: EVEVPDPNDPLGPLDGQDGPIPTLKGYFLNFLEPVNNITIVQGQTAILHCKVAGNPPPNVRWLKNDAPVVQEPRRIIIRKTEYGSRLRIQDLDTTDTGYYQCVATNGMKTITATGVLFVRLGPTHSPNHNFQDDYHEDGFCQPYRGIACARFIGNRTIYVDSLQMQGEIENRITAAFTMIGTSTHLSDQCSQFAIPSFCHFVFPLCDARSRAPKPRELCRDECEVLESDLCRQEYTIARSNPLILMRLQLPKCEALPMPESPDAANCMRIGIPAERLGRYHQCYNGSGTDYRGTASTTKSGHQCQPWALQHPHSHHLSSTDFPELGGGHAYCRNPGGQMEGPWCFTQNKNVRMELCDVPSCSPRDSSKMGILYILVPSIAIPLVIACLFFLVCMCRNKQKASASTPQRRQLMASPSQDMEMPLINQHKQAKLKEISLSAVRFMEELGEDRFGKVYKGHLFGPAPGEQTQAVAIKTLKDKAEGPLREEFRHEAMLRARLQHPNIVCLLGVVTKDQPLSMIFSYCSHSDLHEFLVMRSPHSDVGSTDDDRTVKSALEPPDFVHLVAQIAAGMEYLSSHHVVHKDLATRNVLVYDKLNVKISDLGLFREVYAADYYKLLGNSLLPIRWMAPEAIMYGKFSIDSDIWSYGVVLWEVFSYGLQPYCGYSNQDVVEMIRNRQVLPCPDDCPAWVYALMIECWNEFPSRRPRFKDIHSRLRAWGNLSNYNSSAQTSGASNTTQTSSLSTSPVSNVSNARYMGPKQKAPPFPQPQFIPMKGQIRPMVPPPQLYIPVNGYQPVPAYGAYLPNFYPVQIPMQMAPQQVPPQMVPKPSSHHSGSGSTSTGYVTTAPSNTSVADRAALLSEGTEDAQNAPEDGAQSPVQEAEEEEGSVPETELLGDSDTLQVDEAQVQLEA
Put plainly: flow cytometry on CHO cells expressing cynomolgus monkey ROR2. The method, then: Next, binding of bispecific CD3×ROR2 antibodies and monospecific ROR2 antibodies to CHO cells expressing human or cynomolgus monkey ROR2 was determined, using 5×10⁴ transfected cells/well and an antibody concentration range from 0.01-10 μg/mL.
A general note: In flow cytometry, cells or beads pass a laser one at a time.

Assay [4] deals with T4, cynomolgus monkey ROR2 in which threonine at position 322 is replaced by methionine (ROR2mf-T322M) (cynomolgus monkey (Macaca fascicularis), UniProt Q01974 34-943 (human entry)).
T4 construct: also called RORmf-T322M
Description: flow cytometry on CHO cells expressing ROR2mf-T322M.

Assay [5] concerns the target T1, human (Homo sapiens) ROR2, full length, …. Description: flow cytometry on CHO cells expressing human ROR2. The method, then: Cells (1×10⁵ cells/well) were incubated in polystyrene 96-well round-bottom plates (Greiner bio-one, cat. no. 650180) with serial dilutions of antibodies (ranging from 0.01 to 10 μg/mL in 3- or 4-fold dilution steps) in 100 μL PBS/0.1% BSA/0.02% azide (FACS buffer) at 4° C. for 30-60 min. Experiments were performed in technical duplicate. After washing twice in FACS buffer, cells were incubated in 50 μL secondary antibody (R-Phycoerythrin [PE]-conjugated goat-anti-human IgG F(ab′)₂; diluted 1:200 in FACS buffer; Jackson ImmunoResearch Laboratories, Inc., West Grove, PA, cat. no. 109-116-098) at 4° C. for 30 min. Cells were washed twice in FACS buffer, re-suspended in 30 μL FACS buffer containing Topro-3 (1:10,000 dilution) and analyzed on an iQue Screener (Intellicyt Corporation, USA). Binding curves were analyzed using non-linear regression (sigmoidal dose-response with variable slope) using GraphPad Prism V7.02 software (GraphPad Software, San Diego, CA, USA).

Assay [6] has the same target. Description: cell-based or functional assay.

T2 sequence (Q01974 34-403): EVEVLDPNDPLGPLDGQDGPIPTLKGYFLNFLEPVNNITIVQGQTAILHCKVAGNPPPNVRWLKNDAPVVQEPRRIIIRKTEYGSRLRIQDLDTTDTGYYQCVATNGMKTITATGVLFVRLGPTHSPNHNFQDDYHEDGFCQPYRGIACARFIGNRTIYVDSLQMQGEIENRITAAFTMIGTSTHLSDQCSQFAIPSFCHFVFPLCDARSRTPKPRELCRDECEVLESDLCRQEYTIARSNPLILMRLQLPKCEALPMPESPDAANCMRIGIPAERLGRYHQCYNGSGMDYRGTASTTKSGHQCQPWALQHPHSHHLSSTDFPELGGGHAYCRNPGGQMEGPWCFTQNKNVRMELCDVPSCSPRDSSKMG
T1 sequence (Q01974 34-943 limits assumed): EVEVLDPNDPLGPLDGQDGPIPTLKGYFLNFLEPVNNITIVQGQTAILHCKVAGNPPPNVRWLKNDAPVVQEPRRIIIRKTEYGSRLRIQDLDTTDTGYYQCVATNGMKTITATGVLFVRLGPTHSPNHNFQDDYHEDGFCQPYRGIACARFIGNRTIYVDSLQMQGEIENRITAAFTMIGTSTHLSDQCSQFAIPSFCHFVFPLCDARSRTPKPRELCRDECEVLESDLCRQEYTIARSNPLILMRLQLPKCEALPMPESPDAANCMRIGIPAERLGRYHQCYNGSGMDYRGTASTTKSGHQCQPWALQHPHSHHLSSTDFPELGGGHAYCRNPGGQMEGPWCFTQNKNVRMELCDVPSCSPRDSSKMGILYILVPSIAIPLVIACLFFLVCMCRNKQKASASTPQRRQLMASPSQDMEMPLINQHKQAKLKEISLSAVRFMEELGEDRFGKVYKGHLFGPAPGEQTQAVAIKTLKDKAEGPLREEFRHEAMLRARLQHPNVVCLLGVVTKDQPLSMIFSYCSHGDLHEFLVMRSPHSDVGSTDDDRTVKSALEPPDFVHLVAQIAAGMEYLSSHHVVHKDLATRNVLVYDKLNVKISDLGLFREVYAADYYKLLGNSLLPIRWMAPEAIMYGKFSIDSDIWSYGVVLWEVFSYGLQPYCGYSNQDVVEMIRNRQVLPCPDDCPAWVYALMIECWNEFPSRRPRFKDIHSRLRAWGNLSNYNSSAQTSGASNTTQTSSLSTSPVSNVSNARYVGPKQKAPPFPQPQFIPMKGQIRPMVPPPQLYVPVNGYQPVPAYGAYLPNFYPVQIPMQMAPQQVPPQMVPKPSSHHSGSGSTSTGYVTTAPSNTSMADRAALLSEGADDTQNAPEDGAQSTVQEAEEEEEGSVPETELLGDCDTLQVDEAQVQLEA

B1: bsIgG1-huCD3-H101G-FEAL×b12-FEAR (bispecific antibody)
heavy 1: not shown
light: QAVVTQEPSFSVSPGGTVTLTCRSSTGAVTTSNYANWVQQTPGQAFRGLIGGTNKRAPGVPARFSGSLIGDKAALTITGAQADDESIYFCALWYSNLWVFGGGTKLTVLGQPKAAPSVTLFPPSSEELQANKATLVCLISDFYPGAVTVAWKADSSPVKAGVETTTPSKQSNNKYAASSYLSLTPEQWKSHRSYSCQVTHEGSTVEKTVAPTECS
heavy 2: QVQLVQSGAEVKKPGASVKVSCQASGYRFSNFVIHWVRQAPGQRFEWMGWINPYNGNKEFSAKFQDRVTFTADTSANTAYMELRSLRSADTAVYYCARVGPYSWDDSPQDNYYMDVWGKGTTVIVSSASTKGPSVFPLAPSSKSTSGGTAALGCLVKDYFPEPVTVSWNSGALTSGVHTFPAVLQSSGLYSLSSVVTVPSSSLGTQTYICNVNHKPSNTKVDKRVEPKSCDKTHTCPPCPAPEFEGGPSVFLFPPKPKDTLMISRTPEVTCVVVAVSHEDPEVKFNWYVDGVEVHNAKTKPREEQYNSTYRVVSVLTVLHQDWLNGKEYKCKVSNKALPAPIEKTISKAKGQPREPQVYTLPPSREEMTKNQVSLTCLVKGFYPSDIAVEWESNGQPENNYKTTPPVLDSDGSFFLYSRLTVDKSRWQQGNVFSCSVMHEALHNHYTQKSLSLSPGK
VL: EIVLTQSPGTLSLSPGERATFSCRSSHSIRSRRVAWYQHKPGQAPRLVIHGVSNRASGISDRFSGSGSGTDFTLTITRVEPEDFALYYCQVYGASSYTFGQGTKLERK
notes: Control bispecific; also called bsIgG1-huCD3-H1010G-FEAL×b12-FEAR
Take B1: in assay [1], the binding result was “no binding (tested: 0.014-30 µg/mL)”.

B2: IgG1-ROR2-A-HC4LC3-FEAR (antibody)
heavy: EVQLLESGGGLVQPGGSLRLSCTVSGFSLSSYSMSWVRQAPGKGLEWIGVIYVNSKTWYANWAKGRFTISKDNSKNTVYLQMNSLRAEDTATYYCARGDAGYTTNSWLWGQGTLVTVSSASTKGPSVFPLAPSSKSTSGGTAALGCLVKDYFPEPVTVSWNSGALTSGVHTFPAVLQSSGLYSLSSVVTVPSSSLGTQTYICNVNHKPSNTKVDKRVEPKSCDKTHTCPPCPAPEFEGGPSVFLFPPKPKDTLMISRTPEVTCVVVAVSHEDPEVKFNWYVDGVEVHNAKTKPREEQYNSTYRVVSVLTVLHQDWLNGKEYKCKVSNKALPAPIEKTISKAKGQPREPQVYTLPPSREEMTKNQVSLTCLVKGFYPSDIAVEWESNGQPENNYKTTPPVLDSDGSFFLYSRLTVDKSRWQQGNVFSCSVMHEALHNHYTQKSLSLSPGK
light: AFELTQSPSSLSASVGDRVTITCQASESIDNYLSWYQQKPGKAPKLLIYQAFKLASGVPSRFRGSGSGTDFTLTISSLQPEDFATYYCQSYSGISTTAFGGGTKVEIKRTVAAPSVFIFPPSDEQLKSGTASVVCLLNNFYPREAKVQWKVDNALQSGNSQESVTEQDSKDSTYSLSSTLTLSKADYEKHKVYACEVTHQGLSSPVTKSFNRGEC
notes: Humanized variant, full-length IgG1 with L234F, L235E, D265A, K409R; also called IgG1-ROR2-HC4LC3
Turning to B2, in assay [2], the Kd (commonly the constant that tells how readily two partners part at equilibrium) turned out to be 1.1 nM; the koff (as a rule, the rate constant with which the complex falls apart) is 0.00068 s⁻¹; the kon (as a rule, a measure of how fast the partners come together) worked out at 600000 M⁻¹ s⁻¹. In assay [3], the binding result is listed as “binds”.

B3: bsIgG1-huCD3-FEAL×ROR2-A-HC4LC3-FEAR (bispecific antibody)
heavy 1: not shown
light 1: not shown
heavy 2: EVQLLESGGGLVQPGGSLRLSCTVSGFSLSSYSMSWVRQAPGKGLEWIGVIYVNSKTWYANWAKGRFTISKDNSKNTVYLQMNSLRAEDTATYYCARGDAGYTTNSWLWGQGTLVTVSSASTKGPSVFPLAPSSKSTSGGTAALGCLVKDYFPEPVTVSWNSGALTSGVHTFPAVLQSSGLYSLSSVVTVPSSSLGTQTYICNVNHKPSNTKVDKRVEPKSCDKTHTCPPCPAPEFEGGPSVFLFPPKPKDTLMISRTPEVTCVVVAVSHEDPEVKFNWYVDGVEVHNAKTKPREEQYNSTYRVVSVLTVLHQDWLNGKEYKCKVSNKALPAPIEKTISKAKGQPREPQVYTLPPSREEMTKNQVSLTCLVKGFYPSDIAVEWESNGQPENNYKTTPPVLDSDGSFFLYSRLTVDKSRWQQGNVFSCSVMHEALHNHYTQKSLSLSPGK
light 2: AFELTQSPSSLSASVGDRVTITCQASESIDNYLSWYQQKPGKAPKLLIYQAFKLASGVPSRFRGSGSGTDFTLTISSLQPEDFATYYCQSYSGISTTAFGGGTKVEIKRTVAAPSVFIFPPSDEQLKSGTASVVCLLNNFYPREAKVQWKVDNALQSGNSQESVTEQDSKDSTYSLSSTLTLSKADYEKHKVYACEVTHQGLSSPVTKSFNRGEC
As for B3, the binding result in assay [4], in assay [3] and in assay [5] was “binds” in each case.

B4: bsIgG1-huCD3-H101G-FEAL×ROR2-A-HC4LC3-FEAR (bispecific antibody)
heavy 1: not shown
light 1: not shown
heavy 2: EVQLLESGGGLVQPGGSLRLSCTVSGFSLSSYSMSWVRQAPGKGLEWIGVIYVNSKTWYANWAKGRFTISKDNSKNTVYLQMNSLRAEDTATYYCARGDAGYTTNSWLWGQGTLVTVSSASTKGPSVFPLAPSSKSTSGGTAALGCLVKDYFPEPVTVSWNSGALTSGVHTFPAVLQSSGLYSLSSVVTVPSSSLGTQTYICNVNHKPSNTKVDKRVEPKSCDKTHTCPPCPAPEFEGGPSVFLFPPKPKDTLMISRTPEVTCVVVAVSHEDPEVKFNWYVDGVEVHNAKTKPREEQYNSTYRVVSVLTVLHQDWLNGKEYKCKVSNKALPAPIEKTISKAKGQPREPQVYTLPPSREEMTKNQVSLTCLVKGFYPSDIAVEWESNGQPENNYKTTPPVLDSDGSFFLYSRLTVDKSRWQQGNVFSCSVMHEALHNHYTQKSLSLSPGK
light 2: AFELTQSPSSLSASVGDRVTITCQASESIDNYLSWYQQKPGKAPKLLIYQAFKLASGVPSRFRGSGSGTDFTLTISSLQPEDFATYYCQSYSGISTTAFGGGTKVEIKRTVAAPSVFIFPPSDEQLKSGTASVVCLLNNFYPREAKVQWKVDNALQSGNSQESVTEQDSKDSTYSLSSTLTLSKADYEKHKVYACEVTHQGLSSPVTKSFNRGEC
With B4, the binding result in assay [4] and in assay [5] was “binds” each time.

B5: bsIgG1-huCD3-FEAL×chROR2-A-FEAR (bispecific antibody)
heavy 1: not shown
light 1: not shown
heavy 2: QSVEESGGRLVTPGTPLTLTCTVSGFSLSSYSMSWVRQAPGKGLEWIGVIYVNSKTWYANWAKGRFTISKTSTTVDLKITSPTTEDTATYFCARGDAGYTTNSWLWGPGTLVTVSSASTKGPSVFPLAPSSKSTSGGTAALGCLVKDYFPEPVTVSWNSGALTSGVHTFPAVLQSSGLYSLSSVVTVPSSSLGTQTYICNVNHKPSNTKVDKRVEPKSCDKTHTCPPCPAPEFEGGPSVFLFPPKPKDTLMISRTPEVTCVVVAVSHEDPEVKFNWYVDGVEVHNAKTKPREEQYNSTYRVVSVLTVLHQDWLNGKEYKCKVSNKALPAPIEKTISKAKGQPREPQVYTLPPSREEMTKNQVSLTCLVKGFYPSDIAVEWESNGQPENNYKTTPPVLDSDGSFFLYSRLTVDKSRWQQGNVFSCSVMHEALHNHYTQKSLSLSPGK
light 2: AFELTQTPASVSEPVGGTVTIKCQASESIDNYCSWYQQKPGQPPKLLIYQAFKLASGVPSRFRGSGSGTQFTLTISDLESDDAATYYCQSYSGISTTAFGGGTEVVVKRTVAAPSVFIFPPSDEQLKSGTASVVCLLNNFYPREAKVQWKVDNALQSGNSQESVTEQDSKDSTYSLSSTLTLSKADYEKHKVYACEVTHQGLSSPVTKSFNRGEC
Regarding B5, in assay [4], the binding result was “binds”. In addition, the binding result in assay [3] is reported as “binds”. Further, in assay [6], the “IC50 of T cell mediated cytotoxicity, 786-O cells, human T cells, E:T 8:1” value turned out to be 3 ng/mL; the “IC50 of T cell mediated cytotoxicity, Hela cells, human T cells, E:T 8:1” value amounted to 2 ng/mL; the “IC50 of T cell mediated cytotoxicity, LCLC-103H cells, human T cells, E:T 8:1” value amounted to 11 ng/mL; the “IC50 of T cell mediated cytotoxicity, NCI-H23 cells, human T cells, E:T 8:1” value turned out to be 13 ng/mL. Also, in assay [6], the “IC50 of T cell mediated cytotoxicity, NCI-H1650 cells, human T cells, E:T 8:1” value was 6 ng/mL and the “IC50 of T cell mediated cytotoxicity, ZR-75-1 cells, human T cells, E:T 8:1” value worked out at 3 ng/mL.

B6: chIgG1-ROR2-A-FEAR (antibody, V domains shown)
VH: QSVEESGGRLVTPGTPLTLTCTVSGFSLSSYSMSWVRQAPGKGLEWIGVIYVNSKTWYANWAKGRFTISKTSTTVDLKITSPTTEDTATYFCARGDAGYTTNSWLWGPGTLVTVSS
VL: AFELTQTPASVSEPVGGTVTIKCQASESIDNYCSWYQQKPGQPPKLLIYQAFKLASGVPSRFRGSGSGTQFTLTISDLESDDAATYYCQSYSGISTTAFGGGTEVVVKR
notes: Full-length IgG1 with L234F, L235E, D265A, K409R; also called chIgG1-ROR2-A (with the Fc mutations FEAR)
As for B6, the binding result in assay [4] was “binds”. In addition, in assay [2], the Kd came out at 1.1 nM, the koff amounted to 0.00079 s⁻¹ and the kon worked out at 720000 M⁻¹ s⁻¹. Besides, in assay [3], the binding result is recorded as “binds”.

For the origin of these results see patent US20230365714A1 (published 2023).
